± gives the standard deviation of the averaged measurements.
Each sequence was assayed on Saccharomyces cerevisiae (assay: protein stability index of tFT-peptide fusion (C-terminal peptide) (PSI (0-1 scale)); higher = more stable (slower turnover)). Conditions: genetic background: wild type; temperature: 30 C.
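Also: PSI is a weighted mean of sequencing reads over stability bins, variants kept only with over 10 reads, mCherry proximal and sfGFP distal, peptide attached via GGGS linker.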

First: TYNVVKSMVDNK
Second: TYPRPGSSIWLR
The protein stability index of the first is higher: 0.672 ± 0.026 for the first, 0.572 ± 0.022 for the second.

TYRLLAEPTPPA and TYYCFYCHPSLL are within error of each other in protein stability index: 0.702 ± 0.018 for the first, 0.699 ± 0.057 for the second.

VAAFGGGATNGV and VAGQISGLIYFR are within error of each other in protein stability index: 0.736 ± 0.029 for the first, 0.699 ± 0.044 for the second.

VAHSPLPLILPI and VAPPRQGSPASR are within error of each other in protein stability index: 0.629 ± 0.041 for the first, 0.725 ± 0.057 for the second.

VARFRGGPVPSF and VARGCNSVYGYA are within error of each other in protein stability index: 0.67 ± 0.045 for the first, 0.653 ± 0.012 for the second.

VASITEIRKKGR and VATGVFADPMMC are within error of each other in protein stability index: 0.629 ± 0.022 for the first, 0.667 ± 0.11 for the second.

VAVCGTTNGKNA and VAVGIVGGWWGV are within error of each other in protein stability index: 0.75 ± 0.033 for the first, 0.843 ± 0.11 for the second.

VAVIGAPPGNSR and VAVRCVLWEGFS are within error of each other in protein stability index: 0.672 ± 0.029 for the first, 0.76 ± 0.084 for the second.

VAVSLFVPVLFL and VAWTYDYTGVLR are within error of each other in protein stability index: 0.567 ± 0.061 for the first, 0.626 ± 0.037 for the second.

First: VCAASAGGARAG
Second: VCFVGSCFKLVL
The protein stability index of the first is lower: 0.6213 ± 0.0025 for the first, 0.6324 ± 0.0032 for the second.

VCGGVWGGDNGG and VCGLCGGFMGLA are within error of each other in protein stability index: 0.771 ± 0.049 for the first, 0.69 ± 0.042 for the second.

VCLFPDTMSWDC and VCLVHSPFDTLP are within error of each other in protein stability index: 0.803 ± 0.075 for the first, 0.699 ± 0.037 for the second.

VCLVLGGVEWCV and VCRGRGVEGIGW are within error of each other in protein stability index: 0.6861 ± 0.004 for the first, 0.695 ± 0.12 for the second.

VCSVLFPFLPLP and VCSVVGGGYSWG are within error of each other in protein stability index: 0.7043 ± 0.0056 for the first, 0.686 ± 0.12 for the second.

Going from VCVQECMPTAWR to VDASGYDEQSVH, the protein stability index falls from 0.704 ± 0.036 to 0.6622 ± 0.0018.

VDNTRKRSTNSV and VDSCASVGQGGL are within error of each other in protein stability index: 0.694 ± 0.021 for the first, 0.702 ± 0.044 for the second.

VDVPAGPGGGAC and VDVWCGRGVGRG are within error of each other in protein stability index: 0.641 ± 0.077 for the first, 0.707 ± 0.031 for the second.

VEAIKTSMFFLW and VEFWGAVCNDCL are within error of each other in protein stability index: 0.711 ± 0.055 for the first, 0.706 ± 0.043 for the second.

VEGGGYVVHSGG and VEPLLGHPISRD are within error of each other in protein stability index: 0.657 ± 0.066 for the first, 0.702 ± 0.049 for the second.

Compared with VERRTDRNLGSV, VFAPWLFLFGFF is lower in protein stability index: 0.645 ± 0.007 for the first, 0.521 ± 0.017 for the second.

First: VFCGRVVVGSVV
Second: VFCSCTARPPLR
The protein stability index of the first is lower: 0.65745 ± 0.0006 for the first, 0.717 ± 0.023 for the second.

VFCTFVGPRSDV and VFESGRYLRVAP are within error of each other in protein stability index: 0.775 ± 0.13 for the first, 0.777 ± 0.05 for the second.

VFGAHGRYQDSR and VFGRGGRGGPLG are within error of each other in protein stability index: 0.607 ± 0.054 for the first, 0.647 ± 0.049 for the second.

VFLCNGVGGRGG and VFLLFFFPCSSR are within error of each other in protein stability index: 0.681 ± 0.27 for the first, 0.528 ± 0.013 for the second.

Going from VFLPPPPPPAPP to VFLRGWGRSEGG, the protein stability index rises from 0.639 ± 0.011 to 0.679 ± 0.012.

Going from VFLRVGAPPVRI to VFNSFPLRLFGL, the protein stability index rises from 0.586 ± 0.032 to 0.693 ± 0.023.

VFRFCCQTGALR and VFSCWQFAGGGY are within error of each other in protein stability index: 0.671 ± 0.02 for the first, 0.69 ± 0.037 for the second.

Compared with VFSLLRCLFRPP, VFSLPFPSRSPL is higher in protein stability index: 0.669 ± 0.012 for the first, 0.805 ± 0.028 for the second.

VFVGGGCRGFCL and VFVPPPPSPSSL are within error of each other in protein stability index: 0.624 ± 0.075 for the first, 0.683 ± 0.01 for the second.

VFYLNLLNQTRV and VGAFCLLLGFEG are within error of each other in protein stability index: 0.629 ± 0.016 for the first, 0.599 ± 0.038 for the second.

VGGAVGAVGGGG and VGGCRVRDVAGE are within error of each other in protein stability index: 0.651 ± 0.02 for the first, 0.686 ± 0.042 for the second.

Compared with VGGCVVSFSANR, VGGGGSLVVESG is higher in protein stability index: 0.657 ± 0.043 for the first, 0.70581 ± 0.00064 for the second.

Compared with VGGIGKGSWRWM, VGGVDMCGARVV is higher in protein stability index: 0.6466 ± 0.0034 for the first, 0.754 ± 0.032 for the second.

Going from VGGVWWGGWGHW to VGHVVVRLWPHE, the protein stability index falls from 0.733 ± 0.039 to 0.665 ± 0.013.

VGKVRGLEAVEE and VGLPPVAGLVTG are within error of each other in protein stability index: 0.683 ± 0.0052 for the first, 0.751 ± 0.073 for the second.

VGRERGRAACGE and VGRGEEYYGMEV are within error of each other in protein stability index: 0.662 ± 0.049 for the first, 0.634 ± 0.0066 for the second.

VGSRLVYSAFNV and VGSTKMRYFGEG are within error of each other in protein stability index: 0.69 ± 0.01 for the first, 0.692 ± 0.018 for the second.

VGVCVGWDGRLW and VGVGGGSVASCV are within error of each other in protein stability index: 0.691 ± 0.025 for the first, 0.671 ± 0.018 for the second.

VGVRGGRFWAGA and VHHHQTTCHRHR are the same in protein stability index: 0.682 ± 0.018 for the first, 0.682 ± 0.018 for the second.

Going from VHKMAARGATRL to VHVSRHGSSIAF, the protein stability index rises from 0.647 ± 0.036 to 0.74 ± 0.008.

Compared with VIDLIYSMKVRR, VIKRQSERRYLV is lower in protein stability index: 0.688 ± 0.034 for the first, 0.587 ± 0.039 for the second.

VIMGLKYYRKCE and VIQKHAMGDALL are within error of each other in protein stability index: 0.658 ± 0.014 for the first, 0.699 ± 0.03 for the second.

VISLPWRPKSWW and VIWAPVLAFSVR are within error of each other in protein stability index: 0.739 ± 0.07 for the first, 0.638 ± 0.051 for the second.

VKEKRDLSNYNI and VKGLFLHFLESS are within error of each other in protein stability index: 0.677 ± 0.037 for the first, 0.695 ± 0.042 for the second.

VKGVGNTAGRGV and VLAFSPCPPPPP are within error of each other in protein stability index: 0.659 ± 0.023 for the first, 0.657 ± 0.026 for the second.

VLAGLTWQIAEL and VLEAIIFRKHDN are within error of each other in protein stability index: 0.668 ± 0.023 for the first, 0.74 ± 0.14 for the second.

Going from VLFCSVSFGGGQ to VLGFLGWPCSSS, the protein stability index rises from 0.614 ± 0.091 to 0.76 ± 0.0078.

VLGKIIKLSTYS and VLHAGACARANR are within error of each other in protein stability index: 0.629 ± 0.059 for the first, 0.708 ± 0.043 for the second.

First: VLIAIIRYGPYT
Second: VLLATPFSAIFR
The protein stability index of the first is lower: 0.538 ± 0.0021 for the first, 0.6907 ± 0.0057 for the second.

Going from VLLGSEGGVQSR to VLLLSPPLRPCP, the protein stability index rises from 0.646 ± 0.011 to 0.69 ± 0.024.

VLNSTSFLNKNL and VLRPVSCTKLAA are within error of each other in protein stability index: 0.712 ± 0.059 for the first, 0.656 ± 0.083 for the second.

VLRRADLGYPRV and VLRRALIIELLE are within error of each other in protein stability index: 0.663 ± 0.048 for the first, 0.66 ± 0.025 for the second.

VLRVWGCGEVGV and VLSFLSSFFVRV are within error of each other in protein stability index: 0.69 ± 0.019 for the first, 0.65 ± 0.079 for the second.

VLSLLPFSPFSP and VLSRPLSFPAGI are within error of each other in protein stability index: 0.735 ± 0.096 for the first, 0.61 ± 0.047 for the second.

VLTPLPWSRCSP and VLVSSLSSSKFF are within error of each other in protein stability index: 0.7017 ± 0.0061 for the first, 0.647 ± 0.088 for the second.

VLVTWLESVGGL and VLVVFVGDSSKR are within error of each other in protein stability index: 0.634 ± 0.027 for the first, 0.662 ± 0.039 for the second.

First: VLYGRFSLLGWC
Second: VMFACAGVETRR
The protein stability index of the first is lower: 0.595 ± 0.042 for the first, 0.745 ± 0.037 for the second.

VMGAGGGSRSRV and VMTRNERGQERK are within error of each other in protein stability index: 0.677 ± 0.037 for the first, 0.675 ± 0.038 for the second.

Going from VMVTYCSEVQDR to VNGLVLFEYLMV, the protein stability index falls from 0.693 ± 0.011 to 0.579 ± 0.029.

Compared with VNILRVYHVARA, VNPWLRCSFRFW is higher in protein stability index: 0.564 ± 0.097 for the first, 0.6881 ± 0.0066 for the second.

First: VNRDYLGTNKSS
Second: VNTNLRSTRSNT
The protein stability index of the first is lower: 0.604 ± 0.017 for the first, 0.7271 ± 0.0061 for the second.

VNVCIAEYGNDR and VPFPFLPPSPSL are within error of each other in protein stability index: 0.768 ± 0.062 for the first, 0.87 ± 0.14 for the second.

First: VPFVGLGLKVRV
Second: VPGFARLFGLLD
The protein stability index of the first is lower: 0.6236 ± 0.0057 for the first, 0.737 ± 0.047 for the second.

VPGFCYKERAVV and VPGQRRPSQSPR are within error of each other in protein stability index: 0.673 ± 0.034 for the first, 0.653 ± 0.21 for the second.

Going from VPISLSVVVLPV to VPKRLLSFDQGG, the protein stability index rises from 0.569 ± 0.017 to 0.6801 ± 0.0032.

VPLSALPPPPPA and VPPDTAPPPPRR are within error of each other in protein stability index: 0.703 ± 0.027 for the first, 0.6994 ± 0.0055 for the second.

VPPPLRPLPPPP and VPPSPPRPPPPS are within error of each other in protein stability index: 0.629 ± 0.14 for the first, 0.697 ± 0.053 for the second.

VPRAVACDCVLL and VPSPRHFPLPPP are within error of each other in protein stability index: 0.6845 ± 0.0051 for the first, 0.647 ± 0.049 for the second.

Going from VPTSLGAYLRMV to VPWTPPRVERVP, the protein stability index rises from 0.511 ± 0.014 to 0.737 ± 0.036.

Going from VQCSLWYARLIL to VQLGRRGQAVEP, the protein stability index rises from 0.513 ± 0.033 to 0.7 ± 0.036.

Going from VQRFLGSCPLSI to VQSLCGDCGCCL, the protein stability index rises from 0.611 ± 0.051 to 0.735 ± 0.04.

Compared with VRERWNTKKKKK, VRGLGVIGVCVL is higher in protein stability index: 0.64 ± 0.057 for the first, 0.741 ± 0.019 for the second.

VRGLHRRFEPSN and VRGLYEHSLGSR are within error of each other in protein stability index: 0.8 ± 0.088 for the first, 0.741 ± 0.066 for the second.

VRIARSYERGGK and VRLPLHHPIPNS are within error of each other in protein stability index: 0.701 ± 0.059 for the first, 0.7179 ± 0.0063 for the second.

VRPCLYPCSRTV and VRRGGGHRWVVW are within error of each other in protein stability index: 0.708 ± 0.03 for the first, 0.705 ± 0.016 for the second.

VRRQADRAGRIS and VRRVRGSKFFWR are within error of each other in protein stability index: 0.696 ± 0.073 for the first, 0.609 ± 0.12 for the second.

Going from VRSCGTAGKGVT to VRTHRVRARAVE, the protein stability index rises from 0.615 ± 0.029 to 0.685 ± 0.019.

First: VRTLGPLRPEGL
Second: VRVEVVVFEGAG
The protein stability index of the first is higher: 0.74 ± 0.068 for the first, 0.598 ± 0.034 for the second.

Compared with VRVGNYTRARCK, VRVSPDVYGSFM is lower in protein stability index: 0.714 ± 0.035 for the first, 0.5897 ± 0.0057 for the second.

VRWISVGNGGVR and VRYRSGLVFEGV are within error of each other in protein stability index: 0.725 ± 0.013 for the first, 0.747 ± 0.039 for the second.
